Each substance was assayed against rpod_ecoli rpoD (UniProt P00579).
Chain of rpod_ecoli rpoD (P00579 whole entry): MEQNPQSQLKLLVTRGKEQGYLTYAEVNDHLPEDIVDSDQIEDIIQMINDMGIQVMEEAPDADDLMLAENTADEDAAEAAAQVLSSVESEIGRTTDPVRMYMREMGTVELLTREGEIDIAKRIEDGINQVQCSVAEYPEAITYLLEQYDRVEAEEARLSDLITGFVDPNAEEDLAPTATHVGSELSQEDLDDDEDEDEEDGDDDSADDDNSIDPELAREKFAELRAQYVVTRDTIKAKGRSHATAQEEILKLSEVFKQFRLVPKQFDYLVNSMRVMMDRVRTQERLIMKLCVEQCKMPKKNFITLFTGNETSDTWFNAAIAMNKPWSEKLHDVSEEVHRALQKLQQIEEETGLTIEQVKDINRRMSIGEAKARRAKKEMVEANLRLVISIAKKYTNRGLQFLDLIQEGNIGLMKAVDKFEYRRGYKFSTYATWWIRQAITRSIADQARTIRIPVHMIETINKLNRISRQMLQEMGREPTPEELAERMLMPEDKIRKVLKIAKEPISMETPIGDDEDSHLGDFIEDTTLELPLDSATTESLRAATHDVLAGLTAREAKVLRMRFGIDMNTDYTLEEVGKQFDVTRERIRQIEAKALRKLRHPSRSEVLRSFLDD

| Substance | effect of a mutation on the interaction |
| --- | --- |
| DNA-directed RNA polymerase subunit beta' (Escherichia coli (strain K12)) (from UniProt P0A8T7) E295K | decreasing interaction |
| DNA-directed RNA polymerase subunit beta' (Escherichia coli (strain K12)) (from UniProt P0A8T7) R275Q | decreasing interaction |
| DNA-directed RNA polymerase subunit beta' (Escherichia coli (strain K12)) (from UniProt P0A8T7) R293Q | decreasing interaction |
| DNA-directed RNA polymerase subunit beta' (Escherichia coli (strain K12)) (from UniProt P0A8T7) R297S | decreasing interaction |
| DNA-directed RNA polymerase subunit beta' (Escherichia coli (strain K12)) (from UniProt P0A8T7) Q300E | increasing interaction |
| DNA-directed RNA polymerase subunit beta' (Escherichia coli (strain K12)) (from UniProt P0A8T7) A302D | decreasing interaction |
| DNA-directed RNA polymerase subunit beta' (Escherichia coli (strain K12)) (from UniProt P0A8T7) N309D | increasing interaction |
